From PMC5148612

B1: Atg12~Atg5-Atg16-mCherry complex [modified: conjugated to Atg5 (Atg12~Atg5 protein conjugate) | conjugated to Atg12; conjugated to Atg5 (Atg12~Atg5 protein conjugate); conjugated to Atg12] [S. cerevisiae] / GST-prApe1(1–45) + … (parent)
chain 1: MSRILESENETESDESSIISTNNGTAMERSRNNQELRSSPHTVQNRLELFSRRLSQLGLASDISVDQQVEDSSSGTYEQEETIKTNAQTSKQKSHKDEKNIQKIQIKFQPIGSIGQLKPSVCKISMSQSFAMVILFLKRRLKMDHVYCYINNSFAPSPQQNIGELWMQFKTNDELIVSYCASVAFG
chain 2: MNDIKQLLWNGELNVLVSIDPSFLMKGSPREIAVLRIRVPRETYLVNYMPLIWNKIKSFLSFDPLTDSEKYFWFEHNKTPIPWNYPVGVLFDCLAGKSATFTTSFENQVKDVLTFLRIHLVMGDSLPPTIIPIASSKTQAEKFWFHQWKQVCFILNGSSKAIMSLSVNEARKFWGSVITRNFQDFIEISNKISSSRPRHIPLIIQTSRTSGTFRISQPTISMTGVNPTLKDIEGDILDVKEGINGNDVMVICQGIEIPWHMLLYDLYSKLRSFDGFLYITLVPIKGGDKASSEL
chain 3: MGNFIITERKKAKEERSNPQTDSMDDLLIRRLTDRNDKEAHLNELFQDNSGAIGGNIVSHDDALLNTLAILQKELKSKEQEIRRLKEVIALKNKNTERLNDELISGTIENNVLQQKLSDLKKEHSQLVARWLKKTEKETEAMNSEIDGTK
chain 4: MEEQREILEQLKKTLQMLTVEPSKNNQIANEEKEKKENENSWCIL
chain 5: MNNSKTNQQMNTSMGYPLTVYDECNKFQLIVPTLDANIMLWCIGQLSLLNDSNGCKHLFWQPNDKSNVRILLNNYDYGHLFKYLQCQRKCSVYIGEGTLKKYNLTISTSFDNFLDLTPSEEKESLCREDAHEDPVSPKAGSEEEISPNSTSNVVVSRECLDNFMKQLLKLEESLNKLELEQKVTNKEPNHRISGTIDIPEDRSELVNFFTELKTVKQLEDVFQRYHDYERLSQECDSKTEIASDHSKKETKIEVEPPNERSLQITMNQRDNSLYFQLFNNTNSVLAGNCKLKFTDAGDKPTTQIIDMGPHEIGIKEYKEYRYFPYALDLEAGSTIEIENQYGEVIFLGKYGSSPMINLRPPSRLSAESLQASQEPFYSFQIDTLPELDDSSIISTSISLSYDGDDNEKALTWEEL

Variants of: B1
Assay: microscopy-based bead recruitment assay (mCherry signal at cargo mimetic beads)
Settings: with GST-prApe1(1–45) + Atg19 [S. cerevisiae]; 25 mM HEPES pH 7.5, 150 NaCl and 1 mM DTT; parent: 100; read off a plot

percent of parent [%]	Variant
68	chain 2 K57E
70	chain 2 N84E
55	chain 2 K57E N84E
